Laboratory results: US20260199576A1 (KYOTO UNIVERSITY, published 2026)

Legend:
[1] = molecular target: T1, Biotinylated human integrin αvβ6 (ACROBiosystems, product number IT6-H82E4) (human, UniProt P06756 31-992; P18564 22-707, biotinylated (Avi tag at the C-terminus) ; Biotin on the Avi tag at the C-terminus of the αv chain; the tag is not in the letters.); assay: BLI (Octet RED96), biotinylated integrin αvβ6 on biosensor, antibody in solution
T1 construct: Bought heterodimer; also called biotinylated integrin αvβ6; not shown: basic tail on the β6 chain
Protocol: Next, the binding affinity of the obtained anti-integrin αvβ6 monoclonal antibodies derived from UC or PSC patients was determined. The KD value was measured by biolayer interferometry using Octet RED96 (Sartorius). A 100 nM solution of the antibody, and serially diluted solutions of biotinylated integrin αvβ6 protein in the range of 200 to 6.25 nM were prepared using a buffer containing 20 mM Tris, 150 mM NaCl, 1 mM CaCl₂, 1 mM MgCl₂, 0.1% human serum albumin (014-27604; Fujifilm Wako Pure Chemical Industries, Ltd.) and 0.02% Tween 20 (1610781; Bio-Rad), and added to a 96-well plate (Greiner; 655209) at 200 μL/well. The biotinylated integrin αvβ6 was allowed to bind for 5 minutes to a biosensor (18-5136; Sartorius) soaked in the buffer. After washing of the biosensor, the biosensor was immersed in each antibody solution for 5 minutes (binding reaction). Then, the sensor was immersed in the buffer solution for 1 minute (dissociation reaction). The binding dissociation constant (KD value) between “integrin αvβ6-each monoclonal antibody” was determined using the analysis software (Octet BLI Analysis) attached to the device.

[2] = molecular target: Integrin αvβ8 (ACRO Biosystems, IT8-H52W4) (UniProt P06756 31-992; P26012 43-684); assay: adsorption test: UC antibody 1 150 ng, His-tagged integrin 5 or 25 µg/mL and anti-His-tag magnetic agarose; remaining antibody measured by ELISA, adsorption rate
Protocol: (§1) The concentration of anti-integrin αvβ6 antibodies contained in the recovered solution was measured by ELISA. A microtiter plate was coated with 100 μL/well of 2 μg/mL integrin αvβ6 overnight at 4° C., followed by washing and blocking. After washing, the recovered reaction solution was diluted 10-fold and added at 100 µL/well to the plate, and the plate was incubated at room temperature for 60 minutes. After washing, an HRP-labeled anti-human IgG antibody (50,000-fold dilution; ab6759; Abcam) was added at 100 μL/well to the plate, and the plate was incubated at room temperature for 60 minutes. After washing, the plate was incubated with 3,3′,5,5′-tetramethylbenzidine for 7 minutes, and the absorbance density (OD value) at 450 nm was measured to detect human IgG bound to integrin αvβ6 on the solid phase.
(§2) Anti-histidine tag antibody-labeled magnetic agarose (MBL, D291-10) in the amount of 10 μL (5 μg of anti-his tag antibody), 150 ng of the monoclonal autoantibody derived from an ulcerative colitis patient prepared in Example 2 (UC antibody 1 shown in Table 1), and 5 μg/mL or 25 μg/mL of any of integrins as mentioned below were mixed and reacted by inversion mixing in a total of 500 μL of solution at 4° C. for 12 hours. The solution after the reaction was recovered. As a control, a mixture to which no integrin was added (a mixture of the above-mentioned agarose and autoantibody only) was used to perform the similar reaction. [0157] Integrin αvβ1 (ACRO Biosystems, IT1-H82W6) [0158] Integrin αvβ3 (ACRO Biosystems, IT3-H52E3) [0159] Integrin αvβ5 (ACRO Biosystems, IT5-H52W5) [0160] Integrin αvβ6 (ACRO Biosystems, IT6-H52E1) [0161] Integrin αvβ8 (ACRO Biosystems, IT8-H52W4)
(§3) In the same manner as described in Example 7, the concentration of anti-integrin αvβ6 antibody contained in the recovered solution was determined, and the adsorption rate of anti-integrin αvβ6 antibody in the antibody adsorption reaction was calculated.

[3] = molecular target: Integrin αvβ3 (ACRO Biosystems, IT3-H52E3) (UniProt P06756 31-992; P05106 27-718); assay: as above
Protocol: as §1, §2, §3

[4] = molecular target: Integrin αvβ1 (ACRO Biosystems, IT1-H82W6) (UniProt P06756 31-992; P05556 21-728); assay: as above
Protocol: as §1, §2, §3

[5] = molecular target: Integrin αvβ5 (ACRO Biosystems, IT5-H52W5) (UniProt P06756 31-992; P18084 24-719); assay: as above
Protocol: as §1, §2, §3

[6] = molecular target: T2, human integrin αvβ6 (ACROBiosystems, product number IT6-H52E1) (human, UniProt P06756 31-992; P18564 22-707); assay: blocking ELISA: integrin αvβ6 coated, antibody added, then fibronectin 2 µg/mL; bound fibronectin detected, inhibition effect (%)
T2 construct: also called histidine-tagged integrin αvβ6; histidine-tagged extracellular domain protein of integrin αvβ6; not shown: linker and basic tail on the β6 chain
Protocol: Furthermore, a competitive assay with fibronectin for binding to integrin αvβ6 was performed to confirm the function of the obtained monoclonal antibodies. Briefly, a 96-well microtiter plate was coated with 150 μL/well of 2 μg/mL human integrin αvβ6 (ACROBiosystems, Cat. No. IT6-H52E1) overnight at 4° C., then blocked and incubated with 120 μL of monoclonal antibodies (0.0001-10 μg/mL) for 60 min at room temperature. After washing, the plate was incubated with 100 μL of 2 μg/mL fibronectin (FC010; MilliporeSigma, Burlington, MA) for 60 minutes at room temperature. After washing, an anti-fibronectin antibody (1:5000 dilution; ab2413; Abcam) was added to the plate, and the plate was incubated for 60 min at room temperature. […] After washing, the plate was incubated with 3,3′,5,5′-tetramethylbenzidine for 10 minutes, and the absorbance at 450 nm was measured to detect fibronectin bound to integrin αvβ6 on the solid phase. […] To calculate the binding inhibition rate, blank wells coated with integrin αvβ6 were incubated with fibronectin in the absence of antibody, and the optical density (OD) at 450 nm was measured in the same manner as above. The binding inhibition rate (%) was calculated according to the following formula. […]

Sequence of Integrin αvβ1 (ACRO Biosystems, IT1-H82W6) (P06756 31-992, chain 1 of 2): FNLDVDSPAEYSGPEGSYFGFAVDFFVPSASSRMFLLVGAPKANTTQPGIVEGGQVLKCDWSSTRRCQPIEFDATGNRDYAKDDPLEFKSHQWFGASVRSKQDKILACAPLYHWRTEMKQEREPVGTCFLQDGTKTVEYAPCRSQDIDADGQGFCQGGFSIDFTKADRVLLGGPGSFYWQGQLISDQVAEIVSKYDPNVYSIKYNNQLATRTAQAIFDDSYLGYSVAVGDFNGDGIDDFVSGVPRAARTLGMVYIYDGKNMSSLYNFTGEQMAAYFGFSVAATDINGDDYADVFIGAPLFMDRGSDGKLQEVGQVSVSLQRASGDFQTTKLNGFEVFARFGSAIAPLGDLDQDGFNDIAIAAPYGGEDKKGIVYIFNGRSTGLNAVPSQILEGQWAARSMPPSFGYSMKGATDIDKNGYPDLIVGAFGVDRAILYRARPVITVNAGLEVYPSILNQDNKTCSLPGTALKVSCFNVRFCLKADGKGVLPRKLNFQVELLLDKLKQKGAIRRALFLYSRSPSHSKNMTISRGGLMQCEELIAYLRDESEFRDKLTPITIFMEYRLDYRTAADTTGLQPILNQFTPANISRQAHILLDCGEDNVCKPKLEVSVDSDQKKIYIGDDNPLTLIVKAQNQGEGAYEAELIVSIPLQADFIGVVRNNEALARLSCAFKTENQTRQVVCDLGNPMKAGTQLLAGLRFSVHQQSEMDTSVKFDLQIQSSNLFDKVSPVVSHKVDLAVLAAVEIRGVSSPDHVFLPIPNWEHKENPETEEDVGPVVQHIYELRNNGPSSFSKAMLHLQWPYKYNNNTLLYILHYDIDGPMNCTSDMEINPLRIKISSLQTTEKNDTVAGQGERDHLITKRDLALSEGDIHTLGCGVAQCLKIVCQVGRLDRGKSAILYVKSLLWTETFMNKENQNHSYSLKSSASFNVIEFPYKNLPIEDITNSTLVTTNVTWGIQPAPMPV
Sequence of Integrin αvβ1 (ACRO Biosystems, IT1-H82W6) (P05556 21-728, chain 2 of 2): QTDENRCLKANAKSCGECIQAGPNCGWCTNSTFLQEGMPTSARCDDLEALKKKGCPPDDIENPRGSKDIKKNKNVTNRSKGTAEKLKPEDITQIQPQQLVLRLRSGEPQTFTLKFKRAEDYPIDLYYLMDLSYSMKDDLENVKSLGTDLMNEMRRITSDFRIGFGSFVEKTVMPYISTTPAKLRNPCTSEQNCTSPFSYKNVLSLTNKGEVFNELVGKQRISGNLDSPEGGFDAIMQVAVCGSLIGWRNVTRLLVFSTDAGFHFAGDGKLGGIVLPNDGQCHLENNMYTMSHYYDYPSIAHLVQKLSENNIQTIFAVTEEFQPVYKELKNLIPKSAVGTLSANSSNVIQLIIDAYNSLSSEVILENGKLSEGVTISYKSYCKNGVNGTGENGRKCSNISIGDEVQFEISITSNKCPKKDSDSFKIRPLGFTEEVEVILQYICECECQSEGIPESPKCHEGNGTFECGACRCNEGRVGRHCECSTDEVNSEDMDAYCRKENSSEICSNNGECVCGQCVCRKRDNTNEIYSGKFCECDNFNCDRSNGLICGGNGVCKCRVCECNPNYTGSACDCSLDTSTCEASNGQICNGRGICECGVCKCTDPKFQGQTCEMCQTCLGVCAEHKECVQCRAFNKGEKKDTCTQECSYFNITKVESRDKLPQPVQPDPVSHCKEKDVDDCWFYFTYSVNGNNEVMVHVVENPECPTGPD
T2 sequence (P06756 31-992 limits assumed, chain 1 of 2): as the sequence (P06756 31-992, chain 1 of 2) above
T2 sequence (P18564 22-707 limits assumed, chain 2 of 2): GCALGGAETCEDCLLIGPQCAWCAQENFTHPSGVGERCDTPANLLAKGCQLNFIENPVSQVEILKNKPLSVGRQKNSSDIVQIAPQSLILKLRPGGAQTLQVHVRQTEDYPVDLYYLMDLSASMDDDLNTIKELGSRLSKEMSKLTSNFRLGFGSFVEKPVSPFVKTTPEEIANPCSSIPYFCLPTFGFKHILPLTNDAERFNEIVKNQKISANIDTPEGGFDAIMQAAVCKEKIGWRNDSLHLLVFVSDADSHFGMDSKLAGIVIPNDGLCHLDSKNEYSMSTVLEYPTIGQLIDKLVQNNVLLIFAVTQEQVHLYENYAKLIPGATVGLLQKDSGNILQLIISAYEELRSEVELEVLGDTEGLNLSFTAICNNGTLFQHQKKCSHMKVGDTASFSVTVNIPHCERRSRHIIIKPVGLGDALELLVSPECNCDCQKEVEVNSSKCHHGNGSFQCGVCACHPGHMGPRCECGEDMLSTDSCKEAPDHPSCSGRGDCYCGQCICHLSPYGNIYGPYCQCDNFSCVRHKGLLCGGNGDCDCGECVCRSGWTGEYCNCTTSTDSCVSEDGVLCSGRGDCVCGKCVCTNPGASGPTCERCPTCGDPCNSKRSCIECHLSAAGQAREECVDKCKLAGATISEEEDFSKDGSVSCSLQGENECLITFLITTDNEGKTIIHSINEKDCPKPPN
Sequence of Integrin αvβ5 (ACRO Biosystems, IT5-H52W5) (P06756 31-992, chain 1 of 2): as the sequence (P06756 31-992, chain 1 of 2) above
Sequence of Integrin αvβ5 (ACRO Biosystems, IT5-H52W5) (P18084 24-719, chain 2 of 2): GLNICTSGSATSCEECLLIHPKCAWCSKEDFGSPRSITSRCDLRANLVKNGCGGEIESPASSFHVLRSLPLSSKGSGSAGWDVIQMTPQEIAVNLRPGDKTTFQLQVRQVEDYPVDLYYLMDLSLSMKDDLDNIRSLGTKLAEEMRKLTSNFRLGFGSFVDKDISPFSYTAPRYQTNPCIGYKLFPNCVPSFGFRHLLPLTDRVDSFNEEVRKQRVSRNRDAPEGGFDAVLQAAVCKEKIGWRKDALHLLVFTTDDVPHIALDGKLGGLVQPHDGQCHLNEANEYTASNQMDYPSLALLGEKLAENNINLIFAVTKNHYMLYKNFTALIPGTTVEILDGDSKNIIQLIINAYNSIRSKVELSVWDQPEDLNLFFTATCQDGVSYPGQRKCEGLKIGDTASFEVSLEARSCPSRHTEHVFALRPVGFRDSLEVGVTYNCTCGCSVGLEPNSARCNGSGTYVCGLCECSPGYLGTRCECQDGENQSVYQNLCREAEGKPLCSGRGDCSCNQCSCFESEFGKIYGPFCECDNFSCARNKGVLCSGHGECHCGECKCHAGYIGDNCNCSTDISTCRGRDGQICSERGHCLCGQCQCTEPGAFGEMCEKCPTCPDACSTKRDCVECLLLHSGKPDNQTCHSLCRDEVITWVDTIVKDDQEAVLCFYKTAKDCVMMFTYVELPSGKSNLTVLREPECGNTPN
Sequence of Integrin αvβ3 (ACRO Biosystems, IT3-H52E3) (P06756 31-992, chain 1 of 2): as the sequence (P06756 31-992, chain 1 of 2) above
Sequence of Integrin αvβ3 (ACRO Biosystems, IT3-H52E3) (P05106 27-718, chain 2 of 2): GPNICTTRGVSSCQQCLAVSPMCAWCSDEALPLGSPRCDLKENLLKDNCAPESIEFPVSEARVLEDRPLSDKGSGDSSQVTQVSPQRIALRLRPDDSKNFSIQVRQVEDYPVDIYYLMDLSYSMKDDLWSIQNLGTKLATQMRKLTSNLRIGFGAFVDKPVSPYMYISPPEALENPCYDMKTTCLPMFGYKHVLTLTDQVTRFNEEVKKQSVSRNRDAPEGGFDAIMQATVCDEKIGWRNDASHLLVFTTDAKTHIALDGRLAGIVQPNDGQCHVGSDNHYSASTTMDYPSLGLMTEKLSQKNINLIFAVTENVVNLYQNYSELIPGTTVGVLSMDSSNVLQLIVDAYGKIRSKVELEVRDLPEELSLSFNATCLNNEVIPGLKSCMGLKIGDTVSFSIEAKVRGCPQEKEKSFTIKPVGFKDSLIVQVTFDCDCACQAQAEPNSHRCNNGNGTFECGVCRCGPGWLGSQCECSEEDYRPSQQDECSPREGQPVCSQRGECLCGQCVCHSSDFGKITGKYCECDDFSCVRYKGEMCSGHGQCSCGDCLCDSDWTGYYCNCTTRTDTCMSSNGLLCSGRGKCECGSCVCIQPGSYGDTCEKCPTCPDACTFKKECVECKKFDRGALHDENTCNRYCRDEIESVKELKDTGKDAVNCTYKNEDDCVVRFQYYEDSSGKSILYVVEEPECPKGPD
T1 sequence (P06756 31-992 limits assumed, chain 1 of 2): as the sequence (P06756 31-992, chain 1 of 2) above
T1 sequence (P18564 22-707 limits assumed, chain 2 of 2): as the sequence (P18564 22-707 limits assumed, chain 2 of 2) above
Sequence of Integrin αvβ8 (ACRO Biosystems, IT8-H52W4) (P06756 31-992, chain 1 of 2): as the sequence (P06756 31-992, chain 1 of 2) above
Sequence of Integrin αvβ8 (ACRO Biosystems, IT8-H52W4) (P26012 43-684, chain 2 of 2): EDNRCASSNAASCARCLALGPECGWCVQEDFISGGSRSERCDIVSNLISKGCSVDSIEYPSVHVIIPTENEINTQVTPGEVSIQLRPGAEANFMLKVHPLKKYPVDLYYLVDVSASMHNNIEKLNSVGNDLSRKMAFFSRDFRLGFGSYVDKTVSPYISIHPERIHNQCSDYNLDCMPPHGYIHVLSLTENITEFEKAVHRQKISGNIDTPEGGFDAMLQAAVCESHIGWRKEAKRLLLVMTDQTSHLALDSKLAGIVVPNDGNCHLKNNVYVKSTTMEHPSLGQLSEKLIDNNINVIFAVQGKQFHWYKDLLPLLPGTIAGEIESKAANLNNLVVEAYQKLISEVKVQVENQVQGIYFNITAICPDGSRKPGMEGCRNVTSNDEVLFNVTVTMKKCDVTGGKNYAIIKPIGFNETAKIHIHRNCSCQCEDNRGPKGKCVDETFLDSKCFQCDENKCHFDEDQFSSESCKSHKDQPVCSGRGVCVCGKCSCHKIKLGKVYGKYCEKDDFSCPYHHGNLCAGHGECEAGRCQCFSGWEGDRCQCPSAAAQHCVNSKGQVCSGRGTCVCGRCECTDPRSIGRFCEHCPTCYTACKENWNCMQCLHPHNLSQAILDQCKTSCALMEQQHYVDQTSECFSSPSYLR

Kd [1]: 4.54 nM | binding result [2]: no binding (tested: 25 µg/mL) | binding result [3]: no binding (tested: 25 µg/mL) | binding result [4]: no binding (tested: 25 µg/mL) | binding result [5]: no binding (tested: 25 µg/mL) | IC50 (read off the curve) [6]: ~0.2 µg/mL
B1: UC antibody 1 (antibody, V domains shown)
VH: QVQLVESGGGVVQPGRSLRLSCAASGFTFSSYGMHWVRQAPGKGLEWVAFISYDGINKYYADSVKGRFTISRDNSKDTLYLQMNSLRAEDTAVYYCAKVIPRIRGSGDKAGIKDYYYYGMDVWGQGTTVTVSS
VL: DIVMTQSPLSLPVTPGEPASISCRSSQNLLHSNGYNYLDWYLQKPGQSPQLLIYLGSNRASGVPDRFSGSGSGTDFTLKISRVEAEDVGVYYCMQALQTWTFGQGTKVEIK
notes: Human monoclonal IgG from a UC patient, expressed in CHO cells; also called monoclonal autoantibody derived from an ulcerative colitis patient; anti-integrin αvβ6 antibody (UC antibody 1)
